From US20250066503A1, “CELL INJURY INDUCING THERAPEUTIC DRUG FOR USE IN CANCER THERAPY” (CHUGAI SEIYAKU KABUSHIKI KAISHA, priority 2016, published 2025)
Substitutions are numbered along the chain they refer to. Values belong to the molecule of their own block, whether it stands above or below them.

How the values were obtained:
[1] = biological target: T1, soluble human CD3 epsilon chain (human, UniProt P07766 23-126); assay: SPR, human CD3 on the chip
T1 construct: also called CD3ε
Procedure: (§1) The activity to bind human CD3 when using hCE115HA (SEQ ID NO: 52) as the H chain variable region and L0000 (SEQ ID NO: 53) as the L-chain variable region was evaluated. This was performed using the molecular form of a single-arm antibody having a single Fab at the Fc region of a human IgG1 heterodimerized by the knobs-into-hole technique.
(§2) The affinity and binding rate constants of an anti-CD3 antibody for an antigen were measured by the single-cycle kinetics method of a surface plasmon resonance assay using Biacore™-T200 (GE Healthcare Japan). HBS-EP+(GE Healthcare Japan) was used for the running buffer, and an amine coupling kit (GE Healthcare Japan) was used to covalently bind human CD3 to the CM4 chip (carboxymethyl dextran-coated chip). The anti-CD3 antibody used as the analyte was prepared at 5 and […] using HBS-EP+. Measurements were carried out by first injecting each of the 5- and 20-g/mL anti-CD3 antibody solutions for three minutes continuously at a flow rate of 20 L/min to allow reaction to take place. Then, the solution was switched to HBS-EP+ and the dissociation phase was measured for 3 minutes. After completion of the dissociation phase measurement, the sensor chip was regenerated by washing with 10 mM Gly-HCl at pH 1.5. Measurement at the concentration of 0 was carried out by performing each of the three-minute HBS-EP+ injections twice successively to allow reaction to take place, and then switching to HBS-EP+ to measure the dissociation phase for 3 minutes. After completion of the dissociation phase measurement, the sensor chip was regenerated by washing with 10 mM Gly-HCl at pH 1.5. A data analysis software exclusively for Biacore, Biacore T200 Evaluation Software Version 1.0, was used to perform kinetic analyses to calculate the binding rate constant (ka), dissociation rate constant (kd), and the rate constant ratio from the obtained sensorgrams.

[2] = biological target: human CD3 (soluble human CD3ε chain) (Homo sapiens, UniProt P07766); assay: Affinity for human CD3 by surface plasmon resonance (Biacore T200); type: binding; settings: for Kd: soluble human CD3ε chain, Table 12
Procedure: as §1, §2
CDR and FR were determined according to the Kabat definition (Kabat numbering).
First, point mutations were introduced into FR1, FR2, FR3, CDR1, CDR2, and CDR3 of the humanized anti-human CD3ε chain antibody sequence produced in Reference Example 2, hCE115HA-ERY27_HE (SEQ ID NO: 55), to prepare modified antibodies. Next, the affinity of these modified antibodies for the soluble human CD3ε chain was determined.

[3] = test system: SK-HEP-1/hGPC3 (SK-pca31a) xenograft tumor; assay: In vivo drug efficacy, NOD scid/T cell-injected model, SK-pca31a; parameters: species or system NOD scid mice; settings: 5 mg/kg once through the tail vein, compared to the vehicle-administered group
Procedure: Methods called an NOD scid/T cell-injected model, a humanized NOG mouse model, and a human CD3εδγ gene-modified mouse model were used in the in vivo drug efficacy evaluation. Assay using an NOD scid/T cell-injected model was performed as follows. […] T cells expanded by culturing human PBMCs in vitro were injected into the NOD scid mice with confirmed tumor establishment. The mice were treated by administering bispecific antibody-38 and bispecific antibody-30, -31, -32, or -33. Assay using a humanized NOG mouse model was performed as follows. CD34-positive hematopoietic stem cells derived from umbilical cord blood were transplanted into NOG mice by tail vein injection. Human T cells are constantly supplied in the mice, which are called humanized NOG mice. The PC-10 cell line was transplanted into humanized NOG mice. The humanized NOG mice with confirmed establishment of PC-10 tumor were treated by administering antibody-38. Assay using a human CD3εδγ gene-modified mouse model was performed as follows. Cells of mouse-derived cell line forced to express human GPC3 were transplanted into a human CD3εδγ gene-modified mouse model, which had been prepared according to Reference Example 10. The human CD3εδγ gene-modified mice with confirmed tumor establishment were treated by administering antibody-38.
The drug efficacy evaluation studies for bispecific antibody-38, and bispecific antibody-30, -31, -32, and -33 in NOD scid/T cell-injected model were performed as follows. T cell expansion culture was performed using PBMCs separated from blood collected from a healthy person and T cell activation/expansion kit/human. Each of human cancer cell lines (MKN74, FU-97, SNU-1, SCC152, KYSE70, PC-10, HuH-7, TOV-21G, RMG-1, and SK-pca31a (SK-HEP-1/hGPC3)) was mixed with Matrigel™ Basement Membrane Matrix, and transplanted subcutaneously into NOD scid mice (CLEA Japan). An in vivo-passaged line (STM-03) was transplanted as about 2-mm tumor tissue cubes subcutaneously into NOD scid mice (CLEA Japan). The day of transplantation was defined as Day 0. On the day before transplantation, anti-asialo GM1 antibody (Wako Pure Chemical Industries) was administered intraperitoneally at 0.2 mg/mouse. When tumor was clearly established after transplantation, the mice were separated into groups based on tumor size and body weight. Then, anti-asialo GM1 antibody was administered intraperitoneally at 0.2 mg/mouse again. On the following day, T cells obtained by the aforementioned expansion culture were transplanted intraperitoneally at 1.5×10^7 to 3×10^7 cells/mouse. About two to five hours after T cell transplantation, antibody-38 was administered at 1 mg/kg (MKN74, FU-97, SNU-1, SCC152, KYSE70, PC-10, HuH-7, TOV-21G, RMG-1, and STM-03) through the tail vein. The administration was performed only once. […]

[4] = single-arm antibody, single-cycle kinetics

human CD3 (soluble human CD3ε chain), sequence (P07766 23-126 limits assumed): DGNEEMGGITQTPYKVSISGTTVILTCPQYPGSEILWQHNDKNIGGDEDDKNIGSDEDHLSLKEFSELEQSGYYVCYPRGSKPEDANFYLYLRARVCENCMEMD
T1 sequence (P07766 23-126 limits assumed): as above

Kd [1]: 100 nM | koff [1]: 0.006 s⁻¹ | kon [1]: 59000 M⁻¹ s⁻¹ | Affinity for human CD3 ka [2, 4]: 59000 M⁻¹ s⁻¹ | Affinity for human CD3 kd [2, 4]: 0.006 s⁻¹
B1: rCE115H/rCE115L single-arm antibody (antibody, human IgG1, V domains shown)
VH: EVQLVETGGSLVQPGKSLKLTCATSGFTFSNAWMHWVRQSPEKQLEWVAQIKAKSNNYATYYAESVKGRFTISRDDSKSNIYLQMNSLKEEDTAVYYCRYVHYGAYYGVDAWGQGTSVTVSS
VL: DVVMTQTPVSMSVSLGGQVSISCRSSQSLVHNNGNTYVSWYIQKPSQSPQLLIYKVSNRFSGISDRFSGSGSGTDFTLKISRVEPDDLGVYYCGQGTQDPYTFGAGTKLELK
notes: single Fab on human IgG1 Fc heterodimerized by knobs-into-hole; also called rCE116H/rCE115L

B2: antibody-30: optimized anti-human CD3ε chain and anti-human GPC3 bispecific antibody (antibody)
heavy 1: QVQLVESGGGLVQPGRSLRLSCAASGFTFSNAWMHWVRQAPGKGLEWVAQIKDKSQNYATYYAESVKGRFTISRDDSKNSLYLQMNSLKTEDTAVYYCRYVHYAAGYGVDAWGQGTTVTVSSASTKGPSVFPLAPCSRSTSESTAALGCLVKDYFPEPVTVSWNSGALTSGVHTFPAVLQSSGLYSLSSVVTVPSSSLGTKTYTCNVDHKPSNTKVDKRVESKYGPPCPPCPAPEFRGGPKVFLFPPKPKDTLMISRTPEVTCVVVDVSQEDPEVQFNWYVDGVEVHNAKTKPREEQFASTYRVVSVLTVLHQDWLNGKEYKCKVSNKGLPSSIEKTISKAKGQPREPQVYTLPPSQKEMTKNQVSLTCLVKGFYPSDIAVEWESNGQPENNYKTTPPVLDSDGSFFLYSKLTVDKSRWQEGNVFSCSVMHEALHNRYTQKSLSLSP
heavy 2: QVQLVQSGAEVKKPGASVTVSCKASGYTFTDYEMHWVRQAPGEGLEWMGAIDGETPDTAYSEKFKGRVTLTADKSTSTAYMELSSLTSEDTAVYYCTRFYSYTYWGQGTLVTVSSASTKGPSVFPLAPCSRSTSESTAALGCLVKDYFPEPVTVSWNSGALTSGVHTFPAVLQSSGLYSLSSVVTVPSSSLGTQTYTCNVDHKPSNTKVDKRVESKYGPPCPPCPAPEFRGGPKVFLFPPKPKDTLMISRTPEVTCVVVDVSQEDPEVQFNWYVDGVEVHNAKTKPREEQFASTYRVVSVLTVLHQDWLNGKEYKCKVSNKGLPSSIEKTISKAKGQPREPQVYTLPPSQEEMTKNQVSLTCLVKGFYPSDIAVEWESNGQPENNYKTTPPVLDSDGSFFLYSKLTVDKSRWQEGNVFSCSVMHEALHNHYTQESLSLSP
light: DIVMTQSPLSLPVTPGEPASISCRSSQPLVHSNRNTYLHWYQQKPGQAPRLLIYKVSNRFSGVPDRFSGSGSGTDFTLKISRVEAEDVGVYYCGQGTQVPYTFGQGTKLEIKRTVAAPSVFIFPPSDEQLKSGTASVVCLLNNFYPREAKVQWKVDNALQSGNSQESVTEQDSKDSTYSLSSTLTLSKADYEKHKVYACEVTHQGLSSPVTKSFNRGEC
anti-tumor effect [3]: evident anti-tumor effect

B3: antibody-33: optimized anti-human CD3ε chain and anti-human GPC3 bispecific antibody (antibody)
heavy 1: B2 heavy 1
heavy 2: B2 heavy 2 with V37I, A40P, M48I, E54P
light: B2 light
anti-tumor effect [3]: evident anti-tumor effect

Kd [2]: 16.9 nM
B4: antibody-6: anti-human CD3ε chain and anti-human GPC3 bispecific antibody (antibody)
heavy: QVQLVESGGGVVQPGRSLRLSCAASGFTFSNAWMHWVRQAPGKGLEWVANIKAKSNNYATYYAESVKGRFTISRDDSKNSLYLQMNSLKTEDTAVYYCRYVHYGAYYGVDAWGQGTTVTVSSASTKGPSVFPLAPSSKSTSGGTAALGCLVKDYFPEPVTVSWNSGALTSGVHTFPAVLQSSGLYSLSSVVTVPSSSLGTQTYICNVNHKPSNTKVDKKVEPKSCDKTHTCPPCPAPEAAGGPSVFLFPPKPKDTLMISRTPEVTCVVVDVSHEDPEVKFNWYVDGVEVHNAKTKPREEQYASTYRVVSVLTVLHQDWLNGKEYKCKVSNKALPAPIEKTISKAKGQPREPQVYTLPPSRCELTKNQVSLSCAVKGFYPSDIAVEWESNGQPENNYKTTPPVLDSDGSFFLVSKLTVDKSRWQQGNVFSCSVMHEALHNHYTQKSLSLSPDYKDDDDK
light: B2 light with P28S
chain 1: DIVMTQSPLSLPVTPGEPASISCRSSQSLVHSNRNTYLHWYQQKPGQAPRLLIYKVSNRFSGVPDRFSGSGSGTDFTLKISRVEAEDVGVYYCSQNTHVPPTFGQGTKLEIKSSASTKGPSVFPLAPSSKSTSGGTAALGCLVKDYFPEPVTVSWNSGALTSGVHTFPAVLQSSGLYSLSSVVTVPSSSLGTQTYICNVNHKPSNTKVDKKVEPKSCDKTHTCPPCPAPEAAGGPSVFLFPPKPKDTLMISRTPEVTCVVVDVSHEDPEVKFNWYVDGVEVHNAKTKPREEQYASTYRVVSVLTVLHQDWLNGKEYKCKVSNKALPAPIEKTISKAKGQPREPQVCTLPPSRDELTKNQVSLWCLVKGFYPSDIAVEWESNGQPENNYKTTPPVLDSDGSFFLYSKLTVDKSRWQQGNVFSCSVMHEALHNHYTQKSLSLSPHHHHHHHH
chain 2: QVQLVQSGAEVKKPGASVKVSCKASGYTFTDYEMHWIRQPPGQGLEWIGAIDPKTGDTAYSQKFKGRVTLTADKSTSTAYMELSSLTSEDTAVYYCTRFYSYTYWGQGTLVTVSSASVAAPSVFIFPPSDEQLKSGTASVVCLLNNFYPREAKVQWKVDNALQSGNSQESVTEQDSKDSTYSLSSTLTLSKADYEKHKVYACEVTHQGLSSPVTKSFNRGEC

B5: antibody-31: optimized anti-human CD3ε chain and anti-human GPC3 bispecific antibody (antibody)
heavy 1: B2 heavy 1 with L11V, R16G, D75A, L81I, A111I
heavy 2: B2 heavy 2
light: B2 light
anti-tumor effect [3]: evident anti-tumor effect

Kd [2]: 42.8 nM
B6: CE115HA122-E22Hh//-Hi-Kn010G3/L0000-k0: modified anti-CD3 antibody (antibody)
heavy: B4 heavy
light: B2 light with P28S

B7: antibody-32: optimized anti-human CD3ε chain and anti-human GPC3 bispecific antibody (antibody)
heavy 1: B2 heavy 1 with L11V, R16G, D75A, L81I, A111I
heavy 2: B2 heavy 2 with V37I, A40P, M48I, E54P
light: B2 light
anti-tumor effect [3]: evident anti-tumor effect
